Source: patent publication US20110263454A1, “Methods of Identifying Functional Characteristics of Promoters, Transcription Modifying Proteins and Transcription Modulating Agents” (Salk Institute for Biological Studies, priority 2008, published 2011)

Assays:
mUCP3 promoter = test: NHR-promoter luciferase screen, mUCP3 promoter; assay type: cell-based, mouse; conditions: for Normalized Luc. act., normalized to control / Luc. act., normalized to lacZ: mUCP3 promoter reporter; for Normalized Luc. act., normalized to control: HR without or with its ligand, relative to control; for Luc. act., normalized to lacZ: hormone receptor (HR) without or with its ligand; for mUCP3 promoter reporter activity: transcription factor +/- ligand, control = 1.00
Outline: (§1)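 CV-1 cells were co-transfected with 50 ng NHR (homodimer or NHR/RXR heterodimer), 100 ng promoter-luciferase construct and 50 ng LacZ. Luciferase was normalized to LacZ and to a no-NHR/no-ligand control.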

MCP-1 promoter = test: NHR-promoter luciferase screen, MCP-1 promoter; assay type: cell-based; conditions: for Normalized Luc. act., normalized to control / Luc. act., normalized to lacZ: MCP-1 promoter reporter; for Normalized Luc. act., normalized to control: HR without or with its ligand, relative to control; for Luc. act., normalized to lacZ: hormone receptor (HR) without or with its ligand; for mMCP-1 promoter reporter activity: transcription factor +/- ligand, control = 1.00
Outline: as §1

mADRP promoter = test: NHR-promoter luciferase screen, mADRP promoter; assay type: cell-based, mouse; conditions: for Luc. act., normalized to lacZ / Normalized Luc. act., normalized to control: ADRP promoter, HR/ligand component; for mADRP promoter reporter activity: transcription factor +/- ligand, control = 1.00
Outline: as §1

mDio2 promoter = test: NHR-promoter luciferase screen, mDio2 promoter; assay type: cell-based, mouse; conditions: for Luc. act., normalized to lacZ / Normalized Luc. act., normalized to control: Dio2, HR component without or with its ligand; for mDio2 promoter reporter activity: transcription factor +/- ligand, control = 1.00
Outline: as §1

Bmal1 promoter = test: NHR-promoter luciferase screen, Bmal1 promoter; assay type: cell-based, mouse; conditions: for Luc. act., normalized to lacZ / Normalized Luc. act., normalized to control: Bmal1 promoter, HR component without or with ligand; for mBmal1 promoter reporter activity: transcription factor +/- ligand, control = 1.00
Outline: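 Luciferase activity was measured 48 h after transfection, normalized to LacZ and then to a control lacking NHR or ligand. CV-1 cells carried 100 ng Bmal1 reporter, 50 ng NHR construct and 50 ng LacZ.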

hIFNg promoter = test: NHR-promoter luciferase screen, hIFNg promoter; assay type: cell-based, human; conditions: for Luc. act., normalized to lacZ / Normalized Luc. act., normalized to control: IFNg promoter, HR component without or with ligand; for hIFNg promoter reporter activity: transcription factor +/- ligand, control = 1.00
Outline: as §1

B1: FXR: Farnesoid X Receptor (NR1H4), cDNA driver (protein, UniProt Q96RI1 1-486, looked up)
Bile acid receptor: MVMQFQGLENPIQISPHCSCTPSGFFMEMMSMKPAKGVLTEQVAGPLGQNLEVEPYSQYSNVQFPQVQPQISSSSYYSNLGFYPQQPEEWYSPGIYELRRMPAETLYQGETEVAEMPVTKKPRMGASAGRIKGDELCVVCGDRASGYHYNALTCEGCKGFFRRSITKNAVYKCKNGGNCVMDMYMRRKCQECRLRKCKEMGMLAECMYTGLLTEIQCKSKRLRKNVKQHADQTVNEDSEGRDLRQVTSTTKSCREKTELTPDQQTLLHFIMDSYNKQRMPQEITNKILKEEFSAEENFLILTEMATNHVQVLVEFTKKLPGFQTLDHEDQIALLKGSAVEAMFLRSAEIFNKKLPSGHSDLLEERIRNSGISDEYITPMFSFYKSIGELKMTQEEYALLTAIVILSPDRQYIKDREAVEKLQEPLLDVLQKLCKIHQPENPQHFACLLGRLTELRTFNHHHAEMLMSWRVNDHKFTPLLCEIWDVQ
Normalized Luc. act., normalized to control (mUCP3 promoter): 1.3 | Luc. act., normalized to lacZ (mUCP3 promoter): 0.9 | mUCP3 promoter reporter activity (mUCP3 promoter): 1.30 | Normalized Luc. act., normalized to control (MCP-1 promoter): 1.2 | Luc. act., normalized to lacZ (MCP-1 promoter): 124.1 | mMCP-1 promoter reporter activity (MCP-1 promoter): 1.16 | Luc. act., normalized to lacZ (mADRP promoter): 658.3 | Normalized Luc. act., normalized to control (mADRP promoter): 1.3 | mADRP promoter reporter activity (mADRP promoter): 1.32 | Luc. act., normalized to lacZ (mDio2 promoter): 20.2 | Normalized Luc. act., normalized to control (mDio2 promoter): 1.3 | mDio2 promoter reporter activity (mDio2 promoter): 1.29 | Luc. act., normalized to lacZ (Bmal1 promoter): 15.6 | Normalized Luc. act., normalized to control (Bmal1 promoter): 1.0 | mBmal1 promoter reporter activity (Bmal1 promoter): 1.00 | Luc. act., normalized to lacZ (hIFNg promoter): 17.12 | Normalized Luc. act., normalized to control (hIFNg promoter): 1.1 | hIFNg promoter reporter activity (hIFNg promoter): 1.08

B2: PXR: Pregnane X Receptor (NR1I2), cDNA driver (protein, UniProt O75469 1-434, looked up)
Nuclear receptor subfamily 1 …: MEVRPKESWNHADFVHCEDTESVPGKPSVNADEEVGGPQICRVCGDKATGYHFNVMTCEGCKGFFRRAMKRNARLRCPFRKGACEITRKTRRQCQACRLRKCLESGMKKEMIMSDEAVEERRALIKRKKSERTGTQPLGVQGLTEEQRMMIRELMDAQMKTFDTTFSHFKNFRLPGVLSSGCELPESLQAPSREEAAKWSQVRKDLCSLKVSLQLRGEDGSVWNYKPPADSGGKEIFSLLPHMADMSTYMFKGIISFAKVISYFRDLPIEDQISLLKGAAFELCQLRFNTVFNAETGTWECGRLSYCLEDTAGGFQQLLLEPMLKFHYMLKKLQLHEEEYVLMQAISLFSPDRPGVLQHRVVDQLQEQFAITLKSYIECNRPQPAHRFLFLKIMAMLTELRSINAQHTQRLLRIQDIHPFATPLMQELFGITGS
Normalized Luc. act., normalized to control (mUCP3 promoter): 1.3 | Luc. act., normalized to lacZ (mUCP3 promoter): 0.9 | mUCP3 promoter reporter activity (mUCP3 promoter): 1.34 | Normalized Luc. act., normalized to control (MCP-1 promoter): 2.0 | Luc. act., normalized to lacZ (MCP-1 promoter): 209.7 | mMCP-1 promoter reporter activity (MCP-1 promoter): 1.96 | Luc. act., normalized to lacZ (mADRP promoter): 1021.2 | Normalized Luc. act., normalized to control (mADRP promoter): 2.1 | mADRP promoter reporter activity (mADRP promoter): 2.05 | Luc. act., normalized to lacZ (mDio2 promoter): 32.7 | Normalized Luc. act., normalized to control (mDio2 promoter): 2.1 | mDio2 promoter reporter activity (mDio2 promoter): 2.08 | Luc. act., normalized to lacZ (Bmal1 promoter): 31.2 | Normalized Luc. act., normalized to control (Bmal1 promoter): 2.0 | mBmal1 promoter reporter activity (Bmal1 promoter): 2.00 | Luc. act., normalized to lacZ (hIFNg promoter): 23.93 | Normalized Luc. act., normalized to control (hIFNg promoter): 1.5 | hIFNg promoter reporter activity (hIFNg promoter): 1.50

B3: RARb: Retinoic acid receptor β (NR1B2), nuclear hormone receptor cDNA driver (protein, UniProt P10826 1-455, looked up)
Retinoic acid receptor beta: MTTSGHACPVPAVNGHMTHYPATPYPLLFPPVIGGLSLPPLHGLHGHPPPSGCSTPSPATIETQSTSSEELVPSPPSPLPPPRVYKPCFVCQDKSSGYHYGVSACEGCKGFFRRSIQKNMIYTCHRDKNCVINKVTRNRCQYCRLQKCFEVGMSKESVRNDRNKKKKETSKQECTESYEMTAELDDLTEKIRKAHQETFPSLCQLGKYTTNSSADHRVRLDLGLWDKFSELATKCIIKIVEFAKRLPGFTGLTIADQITLLKAACLDILILRICTRYTPEQDTMTFSDGLTLNRTQMHNAGFGPLTDLVFTFANQLLPLEMDDTETGLLSAICLICGDRQDLEEPTKVDKLQEPLLEALKIYIRKRRPSKPHMFPKILMKITDLRSISAKGAERVITLKMEIPGSMPPLIQEMLENSEGHEPLTPSSSGNTAEHSPSISPSSVENSGVSQSPLVQ
Normalized Luc. act., normalized to control (mUCP3 promoter): 2.1 | Luc. act., normalized to lacZ (mUCP3 promoter): 1.4 | mUCP3 promoter reporter activity (mUCP3 promoter): 2.08 | Normalized Luc. act., normalized to control (MCP-1 promoter): 1.8 | Luc. act., normalized to lacZ (MCP-1 promoter): 197.0 | mMCP-1 promoter reporter activity (MCP-1 promoter): 1.84 | Luc. act., normalized to lacZ (mADRP promoter): 799.4 | Normalized Luc. act., normalized to control (mADRP promoter): 1.6 | mADRP promoter reporter activity (mADRP promoter): 1.61 | Luc. act., normalized to lacZ (mDio2 promoter): 32.7 | Normalized Luc. act., normalized to control (mDio2 promoter): 2.1 | mDio2 promoter reporter activity (mDio2 promoter): 2.08 | Luc. act., normalized to lacZ (Bmal1 promoter): 15.6 | Normalized Luc. act., normalized to control (Bmal1 promoter): 1.0 | mBmal1 promoter reporter activity (Bmal1 promoter): 1.00 | Luc. act., normalized to lacZ (hIFNg promoter): 24.4 | Normalized Luc. act., normalized to control (hIFNg promoter): 1.5 | hIFNg promoter reporter activity (hIFNg promoter): 1.53

B4: RARg: Retinoic acid receptor γ (NR1B3), nuclear hormone receptor cDNA driver (protein, UniProt P13631 1-454, looked up)
Retinoic acid receptor gamma: MATNKERLFAAGALGPGSGYPGAGFPFAFPGALRGSPPFEMLSPSFRGLGQPDLPKEMASLSVETQSTSSEEMVPSSPSPPPPPRVYKPCFVCNDKSSGYHYGVSSCEGCKGFFRRSIQKNMVYTCHRDKNCIINKVTRNRCQYCRLQKCFEVGMSKEAVRNDRNKKKKEVKEEGSPDSYELSPQLEELITKVSKAHQETFPSLCQLGKYTTNSSADHRVQLDLGLWDKFSELATKCIIKIVEFAKRLPGFTGLSIADQITLLKAACLDILMLRICTRYTPEQDTMTFSDGLTLNRTQMHNAGFGPLTDLVFAFAGQLLPLEMDDTETGLLSAICLICGDRMDLEEPEKVDKLQEPLLEALRLYARRRRPSQPYMFPRMLMKITDLRGISTKGAERAITLKMEIPGPMPPLIREMLENPEMFEDDSSQPGPHPNASSEDEVPGGQGKGGLKSPA
Normalized Luc. act., normalized to control (mUCP3 promoter): 2.0 | Luc. act., normalized to lacZ (mUCP3 promoter): 1.3 | mUCP3 promoter reporter activity (mUCP3 promoter): 1.98 | Normalized Luc. act., normalized to control (MCP-1 promoter): 1.6 | Luc. act., normalized to lacZ (MCP-1 promoter): 167.8 | mMCP-1 promoter reporter activity (MCP-1 promoter): 1.57 | Luc. act., normalized to lacZ (mADRP promoter): 765.4 | Normalized Luc. act., normalized to control (mADRP promoter): 1.5 | mADRP promoter reporter activity (mADRP promoter): 1.54 | Luc. act., normalized to lacZ (mDio2 promoter): 35.2 | Normalized Luc. act., normalized to control (mDio2 promoter): 2.2 | mDio2 promoter reporter activity (mDio2 promoter): 2.24 | Luc. act., normalized to lacZ (Bmal1 promoter): 19.1 | Normalized Luc. act., normalized to control (Bmal1 promoter): 1.2 | mBmal1 promoter reporter activity (Bmal1 promoter): 1.22 | Luc. act., normalized to lacZ (hIFNg promoter): 22.8 | Normalized Luc. act., normalized to control (hIFNg promoter): 1.4 | hIFNg promoter reporter activity (hIFNg promoter): 1.43

B5: PPARd: Peroxisome proliferator activated receptor δ (NR1C2), cDNA driver (protein, UniProt Q03181 1-441, looked up)
Peroxisome …: MEQPQEEAPEVREEEEKEEVAEAEGAPELNGGPQHALPSSSYTDLSRSSSPPSLLDQLQMGCDGASCGSLNMECRVCGDKASGFHYGVHACEGCKGFFRRTIRMKLEYEKCERSCKIQKKNRNKCQYCRFQKCLALGMSHNAIRFGRMPEAEKRKLVAGLTANEGSQYNPQVADLKAFSKHIYNAYLKNFNMTKKKARSILTGKASHTAPFVIHDIETLWQAEKGLVWKQLVNGLPPYKEISVHVFYRCQCTTVETVRELTEFAKSIPSFSSLFLNDQVTLLKYGVHEAIFAMLASIVNKDGLLVANGSGFVTREFLRSLRKPFSDIIEPKFEFAVKFNALELDDSDLALFIAAIILCGDRPGLMNVPRVEAIQDTILRALEFHLQANHPDAQYLFPKLLQKMADLRQLVTEHAQMMQRIKKTETETSLHPLLQEIYKDMY
Normalized Luc. act., normalized to control (mUCP3 promoter): 1.7 | Luc. act., normalized to lacZ (mUCP3 promoter): 1.1 | mUCP3 promoter reporter activity (mUCP3 promoter): 1.69 | Normalized Luc. act., normalized to control (MCP-1 promoter): 1.8 | Luc. act., normalized to lacZ (MCP-1 promoter): 190.4 | mMCP-1 promoter reporter activity (MCP-1 promoter): 1.78 | Luc. act., normalized to lacZ (mADRP promoter): 694.0 | Normalized Luc. act., normalized to control (mADRP promoter): 1.4 | mADRP promoter reporter activity (mADRP promoter): 1.39 | Luc. act., normalized to lacZ (mDio2 promoter): 19.1 | Normalized Luc. act., normalized to control (mDio2 promoter): 1.2 | mDio2 promoter reporter activity (mDio2 promoter): 1.21 | Luc. act., normalized to lacZ (Bmal1 promoter): 11.2 | Normalized Luc. act., normalized to control (Bmal1 promoter): 0.7 | mBmal1 promoter reporter activity (Bmal1 promoter): 0.72 | Luc. act., normalized to lacZ (hIFNg promoter): 19.72 | Normalized Luc. act., normalized to control (hIFNg promoter): 1.2 | hIFNg promoter reporter activity (hIFNg promoter): 1.24
